Experimental data: US9068994

target: Thyroid Stimulating Hormone (TSH) (UniProt P01215); test: FRET competition, unlabelled Ab pre-bound to Alexa488 antigen; competitor: BHQ-labelled 5409

Substance	relative fluorescence (relative (same pair = 1.0))
AbCam ME-130 (ab9390) TSH mouse monoclonal antibody	0.82
Biospacific Cat#5409 SPTNE-5 TSH mouse monoclonal antibody	1
Fitzgerald 10C-CR2151M4 TSH mouse monoclonal antibody, clone 157155	0.94

target: Follicle Stimulating Hormone (FSH) (UniProt P01215); test: i-STAT sandwich cartridge, 0.4 mIU/L TSH plus FSH; row Ab capture; detection Ab: T25C

Substance	FSH CR (%) (cross reactivity)
Biospacific Cat#5409 SPTNE-5 TSH mouse monoclonal antibody	0.65

target: Thyroid Stimulating Hormone (TSH) (UniProt P01215); test: i-STAT sandwich cartridge with TSH; row Ab on capture beads; detection conjugate: M4-ALP

Substance	electrochemical current (sandwich signal) [nA]
AbCam ME-130 (ab9390) TSH mouse monoclonal antibody	50.5
Biospacific Cat#5409 SPTNE-5 TSH mouse monoclonal antibody	15.2

target: Thyroid Stimulating Hormone (TSH) (UniProt P01215); test: i-STAT sandwich cartridge with TSH; row Ab on capture beads; detection conjugate: T25C-ALP

Substance	electrochemical current (sandwich signal) [nA]
AbCam ME-130 (ab9390) TSH mouse monoclonal antibody	0.1
Biospacific Cat#5409 SPTNE-5 TSH mouse monoclonal antibody	34.6
Fitzgerald 10C-CR2151M4 TSH mouse monoclonal antibody, clone 157155	22.5

target: Luteinizing Hormone (LH) (UniProt P01215); test: i-STAT sandwich cartridge, 0.4 mIU/L TSH plus LH; row Ab capture; detection Ab: ME130

Substance	LH CR (%) (cross reactivity)
Biospacific Cat#5409 SPTNE-5 TSH mouse monoclonal antibody	10.1

target: Luteinizing Hormone (LH) (UniProt P01215); test: FRET quenching titration, BHQ-10 antibody with Alexa Fluor 488 antigen, in solution

Substance	Kd [nM]
AbCam ME-130 (ab9390) TSH mouse monoclonal antibody	54
Biospacific Cat#5409 SPTNE-5 TSH mouse monoclonal antibody	1000
Fitzgerald 10C-CR2151M4 TSH mouse monoclonal antibody, clone 157155	300

target: Thyroid Stimulating Hormone (TSH) (UniProt P01215); test: as above

Substance	Kd [nM]
AbCam ME-130 (ab9390) TSH mouse monoclonal antibody	0.04
Biospacific Cat#5409 SPTNE-5 TSH mouse monoclonal antibody	0.1
Fitzgerald 10C-CR2151M4 TSH mouse monoclonal antibody, clone 157155	0.18

target: Chorionic Gonadotropin (CG) (UniProt P01215); test: as above

Substance	Kd [nM]
AbCam ME-130 (ab9390) TSH mouse monoclonal antibody	45
Biospacific Cat#5409 SPTNE-5 TSH mouse monoclonal antibody	500
Fitzgerald 10C-CR2151M4 TSH mouse monoclonal antibody, clone 157155	554

target: Follicle Stimulating Hormone (FSH) (UniProt P01215); test: as above

Substance	Kd [nM]
AbCam ME-130 (ab9390) TSH mouse monoclonal antibody	70
Biospacific Cat#5409 SPTNE-5 TSH mouse monoclonal antibody	1000
Fitzgerald 10C-CR2151M4 TSH mouse monoclonal antibody, clone 157155	210

target: Chorionic Gonadotropin (CG) (UniProt P01215); test: i-STAT sandwich cartridge, 0.4 mIU/L TSH plus CG; row Ab capture; detection Ab: T25C

Substance	CG CR (%) (cross reactivity)
Biospacific Cat#5409 SPTNE-5 TSH mouse monoclonal antibody	0.96

target: Thyroid Stimulating Hormone (TSH) (UniProt P01215); test: i-STAT sandwich cartridge with TSH; row Ab on capture beads; detection conjugate: ME130-ALP

Substance	electrochemical current (sandwich signal) [nA]
Biospacific Cat#5409 SPTNE-5 TSH mouse monoclonal antibody	53.6
Fitzgerald 10C-CR2151M4 TSH mouse monoclonal antibody, clone 157155	39.9

target: Chorionic Gonadotropin (CG) (UniProt P01215); test: i-STAT sandwich cartridge, 0.4 mIU/L TSH plus CG; row Ab capture; detection Ab: 5409

Substance	CG CR (%) (cross reactivity)
AbCam ME-130 (ab9390) TSH mouse monoclonal antibody	11.8

target: Luteinizing Hormone (LH) (UniProt P01215); test: i-STAT sandwich cartridge, 0.4 mIU/L TSH plus LH; row Ab capture; detection Ab: 5409

Substance	LH CR (%) (cross reactivity)
AbCam ME-130 (ab9390) TSH mouse monoclonal antibody	11.1

target: Luteinizing Hormone (LH) (UniProt P01215); test: i-STAT sandwich cartridge, 0.4 mIU/L TSH plus LH; row Ab capture; detection Ab: T25C

Substance	LH CR (%) (cross reactivity)
Biospacific Cat#5409 SPTNE-5 TSH mouse monoclonal antibody	3.76

target: Thyroid Stimulating Hormone (TSH) (UniProt P01215); test: FRET competition, unlabelled Ab pre-bound to Alexa488 antigen; competitor: BHQ-labelled TSH Ab 544

Substance	relative fluorescence (relative (same pair = 1.0))
AbCam ME-130 (ab9390) TSH mouse monoclonal antibody	0.82
Biospacific Cat#5409 SPTNE-5 TSH mouse monoclonal antibody	0.93
Fitzgerald 10C-CR2151M4 TSH mouse monoclonal antibody, clone 157155	0.98

target: Thyroid Stimulating Hormone (TSH) (UniProt P01215); test: FRET competition, unlabelled Ab pre-bound to Alexa488 antigen; competitor: BHQ-labelled M4

Substance	relative fluorescence (relative (same pair = 1.0))
AbCam ME-130 (ab9390) TSH mouse monoclonal antibody	0.77
Biospacific Cat#5409 SPTNE-5 TSH mouse monoclonal antibody	0.9
Fitzgerald 10C-CR2151M4 TSH mouse monoclonal antibody, clone 157155	1

target: Thyroid Stimulating Hormone (TSH) (UniProt P01215); test: FRET competition, unlabelled Ab pre-bound to Alexa488 antigen; competitor: BHQ-labelled 414B

Substance	relative fluorescence (relative (same pair = 1.0))
AbCam ME-130 (ab9390) TSH mouse monoclonal antibody	0.99
Biospacific Cat#5409 SPTNE-5 TSH mouse monoclonal antibody	0.88
Fitzgerald 10C-CR2151M4 TSH mouse monoclonal antibody, clone 157155	0.9

target: Thyroid Stimulating Hormone (TSH) (UniProt P01215); test: i-STAT sandwich cartridge with TSH; row Ab on capture beads; detection conjugate: 5409-ALP

Substance	electrochemical current (sandwich signal) [nA]
AbCam ME-130 (ab9390) TSH mouse monoclonal antibody	54.7
Fitzgerald 10C-CR2151M4 TSH mouse monoclonal antibody, clone 157155	20.7

target: Follicle Stimulating Hormone (FSH) (UniProt P01215); test: i-STAT sandwich cartridge, 0.4 mIU/L TSH plus FSH; row Ab capture; detection Ab: 5409

Substance	FSH CR (%) (cross reactivity)
AbCam ME-130 (ab9390) TSH mouse monoclonal antibody	3.9

target: Chorionic Gonadotropin (CG) (UniProt P01215); test: i-STAT sandwich cartridge, 0.4 mIU/L TSH plus CG; row Ab capture; detection Ab: ME130

Substance	CG CR (%) (cross reactivity)
Biospacific Cat#5409 SPTNE-5 TSH mouse monoclonal antibody	0.78

target: Thyroid Stimulating Hormone (TSH) (UniProt P01215); test: FRET competition, unlabelled Ab pre-bound to Alexa488 antigen; competitor: BHQ-labelled ME130

Substance	relative fluorescence (relative (same pair = 1.0))
AbCam ME-130 (ab9390) TSH mouse monoclonal antibody	1
Biospacific Cat#5409 SPTNE-5 TSH mouse monoclonal antibody	0.78
Fitzgerald 10C-CR2151M4 TSH mouse monoclonal antibody, clone 157155	0.76

target: Follicle Stimulating Hormone (FSH) (UniProt P01215); test: i-STAT sandwich cartridge, 0.4 mIU/L TSH plus FSH; row Ab capture; detection Ab: ME130

Substance	FSH CR (%) (cross reactivity)
Biospacific Cat#5409 SPTNE-5 TSH mouse monoclonal antibody	2.43

target: Thyroid Stimulating Hormone (TSH) (UniProt P01215); test: FRET competition, unlabelled Ab pre-bound to Alexa488 antigen; competitor: BHQ-labelled T25C

Substance	relative fluorescence (relative (same pair = 1.0))
AbCam ME-130 (ab9390) TSH mouse monoclonal antibody	0.88
Biospacific Cat#5409 SPTNE-5 TSH mouse monoclonal antibody	0.78
Fitzgerald 10C-CR2151M4 TSH mouse monoclonal antibody, clone 157155	0.74

target: Thyroid Stimulating Hormone (TSH) (UniProt P01215); test: i-STAT sandwich cartridge with TSH; row Ab on capture beads; detection conjugate: TSH Ab 544-ALP

Substance	electrochemical current (sandwich signal) [nA]
AbCam ME-130 (ab9390) TSH mouse monoclonal antibody	10.8
Biospacific Cat#5409 SPTNE-5 TSH mouse monoclonal antibody	1.41
Fitzgerald 10C-CR2151M4 TSH mouse monoclonal antibody, clone 157155	0
